From patent publication US11331368B2, “Angiotensin receptor agonists and uses thereof” (Monash University, priority 2017, dated 2022) come the findings set out here.

Square brackets hold non-standard residues; d marks the D form. Primed or numbered codes have the meaning given here. Ends that are not written are not given here. * marks the point of attachment. Cholyl = C[C@H](CCC(=O)*)[C@H]1CC[C@H]2[C@@H]3[C@H](O)C[C@@H]4C[C@H](O)CC[C@]4(C)[C@H]3C[C@H](O)[C@]12C; βPhe = beta-form phenylalanine; βArg = beta-form arginine; βTyr = beta-form tyrosine; βPro = beta-form proline; βVal″ = beta-form valine

The test system of test [1] is male FVB/N mice on high salt diet, heart. Nature of the test: High salt (5%) diet intervention model, heart. It counts as in vivo, mouse. The following applies: PD123319 1 mg/kg/day s.c. with β-Pro7-Ang III or D-Arg2-β-Pro7-Ang III. As to the method: C) In the intervention (or reversal) model, male FVB/N mice were treated with selective AT2Rs agonists after the establishment of cardiovascular disease using a high salt diet, in order to reverse cardiovascular pathologies. In some experiments, the ACE inhibitor captopril (dose) or the ARB candesartan cilexetil (dose) were given for 4 weeks in drinking water. Organs examined included heart, kidney and liver and these were compared to either untreated mice or high salt-fed mice that were treated with saline.
A high-salt diet (5% salt) model is a clinically relevant and disease-reversal model which can replicate the high salt intake by humans which is currently a growing problem in the developed countries. High salt intake induces changes in the cardiovascular system and induces remodelling and fibrosis in the heart, kidney and liver.
Mice were placed on either a normal rodent diet (0.35% NaCl) which acted as control or a high salt diet (5% sodium in food chow) for 8 weeks. After 4 weeks, mice were also treated subcutaneously (via osmotic mini-pump) with either saline or an AT2R agonist (75 pmol/kg/min subcutaneously) for 4 weeks. Mice continued to be fed a high salt diet whilst receiving these treatments.
All mice which underwent surgery were anaesthetized with Isoflurane (Isorrane) (5% induction and 2.5% maintenance) and an incision made in the midscapular region through which osmotic minipumps (Alzet model 2004, Alza Corp) were inserted for subcutaneous drug administration. The incision area was sutured with 6/0 DY silk (Dynek Pty Ltd) and antibiotic powder applied (Cicatrin, Pfizer) followed by intramuscular injection of the analgesic Cartrophen (0.1 ml of a 1.5 mg/ml stock solution; Biopharm Australia). Systolic blood pressure (SBP) was measured using non-invasive tail-cuff plethysmography apparatus (MC4000 Blood Pressure Analysis System, Hatteras Instrument Inc) before drug treatment (week 0), and then fortnightly. At the end of the 8 week treatment period mice were weighed before being killed by overdose of isoflurane inhalation and cervical dislocation.
To measure collagen deposition, frozen sections of heart, kidney or aorta (all 5 μm thickness) were air dried for 10 minutes and were brought through 3 times xylene (2 minutes each), and 3 times absolute alcohol washes before being rinsed in tap H2O for 30 seconds. Staining with an optimal concentration of picrosirius red (in this instance 0.05% picrosirius red diluted in saturated picric acid) was performed and left for an hour. Sections were then rinsed in water and differentiated in 0.01M HCl for 2 minutes, followed by dehydration via 3 times absolute alcohol washes. Then, slides were brought through 3 times xylene washes before being cover slipped according to standard histological techniques using DPX as the mounting medium. Images were taken under ×20 magnification, using bright field (Olympus, BX51) and circularized polarized light microscopy (DM IRB, Leica) while percentage of positive interstitial collagen staining per total field of view was quantified using ImageJ 1.46 software (Java, NIH), and averaged out from a total of eight views as the final percentage collagen content in a particular animal.
Immunostaining was performed on 5 μm thick transverse frozen heart sections. These sections were air dried and fixed in ice-cold acetone for approximately 15 minutes before washing with 0.01M PBS buffer (3×10 minutes). Sections were then incubated with 10% goat serum in 0.01M PBS for 30 minutes to reduce non-specific binding. If the primary antibody is raised in goat, this pre-blocked medium is substituted with 5% BSA in PBS and Triton-X. Next, blocking buffers were removed and the primary antibody to respective markers were applied overnight at room temperature based on the following dilution and origin of the antibodies: α-SMA (1:500, Abcam), Vimentin (1:500, Santa Cruz), P-IκBα (1:200, Cell Signalling), F4/80 macrophage (1:100, Serotec). […]

The target of test [2] is T1, human Angiotensin II Receptor Type 2 (AT2R) (human, UniProt P50052 1-363).
T1 construct: whole, on cells; also endogenous on human cardiac fibroblasts (functional entries); also called AT2 receptor
T1 sequence (looked up): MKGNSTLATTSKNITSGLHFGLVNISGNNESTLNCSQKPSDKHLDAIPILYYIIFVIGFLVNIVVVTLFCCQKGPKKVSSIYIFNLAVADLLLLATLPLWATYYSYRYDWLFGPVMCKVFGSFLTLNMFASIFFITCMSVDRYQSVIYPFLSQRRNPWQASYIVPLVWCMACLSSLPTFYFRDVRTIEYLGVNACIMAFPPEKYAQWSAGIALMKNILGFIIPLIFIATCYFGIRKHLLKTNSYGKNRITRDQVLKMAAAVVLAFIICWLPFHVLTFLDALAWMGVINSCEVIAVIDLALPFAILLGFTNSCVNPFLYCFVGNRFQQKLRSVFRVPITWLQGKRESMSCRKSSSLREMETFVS
The experiment in a line: competition radioligand binding on HEK-293 cells with AT2R; competitor [125I]-Sar1Ile8Ang II.
Experimental: For each experiment, each ligand concentration was tested in duplicate or triplicate, and each experiment was repeated at least 3 separate times.

In the case of `Cc1cc(Cn2cnc3c2C[C@@H](C(=O)O)N(C(=O)C(c2ccccc2)c2ccccc2)C3)ccc1N(C)C` [PD123319, reference compound], in test [1], the “effect of AT2R antagonist co-treatment on peptide anti-fibrotic effect (cardiac fibrosis, picrosirius red)” value is given as “attenuated the anti-fibrotic effects of these peptides” and the “effect of AT2R antagonist co-treatment on peptide inhibition of myofibroblast differentiation (α-SMA)” value is on record as “attenuated the inhibitory effects of these peptides”.

B1: βTyr-Ang III (peptide)
peptide: RV[βTyr]IHPF-OH
notes: synthetic peptide; also called Arg-Val-β-Tyr-Ile-His-Pro-Phe
Broadly, the IC50 is the concentration at which inhibition is half-maximal. Lower therefore signals inhibition by little substance. B1 had a half-inhibitory concentration (IC50) in test [2] of 1.82 nM.

B2: βTyr-Trp-8-Ang III (peptide)
peptide: RV[βTyr]IHPW-OH
notes: synthetic peptide; also called β-Tyr^4-Trp^8-Ang III; β-Tyro-Trp^8-Ang III
B2 registered an IC50 in test [2] of 0.384 nM.

B3: NAc-βPro-Trp-8-Ang III (peptide)
peptide: Ac-RVYIH[βPro]W-OH
notes: synthetic peptide; also called N-Ac-β-Pro^7-Trp^8-Ang III; N-Ac-Pro^7-Trp^8-Ang III
In test [2], B3 showed an IC50 of 0.34 nM.

B4: βArg-Ala-8-Ang III (peptide)
peptide: [βArg]VYIHPA-OH
notes: synthetic peptide; also called β-Arg-Val-Tyr-Ile-His-Pro-Ala
Regarding B4, the 50% inhibitory concentration (IC50) in test [2] worked out at 6.5 nM.

B5: βArg-Ala-8-Ang II (peptide)
peptide: D[βArg]VYIHPA-OH
notes: synthetic peptide; also called Asp-β-Arg-Val-Tyr-Ile-His-Pro-Ala
The molecule B5 had a half-maximal inhibitory concentration (IC50) in test [2] of 12.5 nM. Against the preceding molecule, the IC50 is about 1.9-fold higher.

B6: Cholic Acid-βPro-Ang III (peptide)
peptide: Cholyl-RVYIH[βPro]F-OH
notes: synthetic peptide; also called Cholate-Arg-Val-Tyr-Ile-His-β-Pro-Phe
On to B6, for which the 50% inhibitory concentration (IC50) in test [2] stood at 0.05 nM.

B7: Nic-βPro-Ang III (peptide)
peptide: nicotinamido-RVYIH[βPro]F-OH
notes: synthetic peptide; also called Nicotinamido-Arg-Val-Tyr-Ile-His-β-Pro-Phe
As for B7, in test [2], the IC50 stood at 0.12 nM.

B8: βVal-Ala-8-Ang III (peptide)
peptide: R[βVal″]YIHPA-OH
notes: synthetic peptide; also called Arg-β-Val-Tyr-Ile-His-Pro-Ala
Consider B8, for which the IC50 in test [2] is 8.1 nM.

B9: D-Arg-Ang III (peptide)
peptide: [dR]VYIHPF-OH
notes: synthetic peptide; also called D-Arg-Val-Tyr-Ile-His-Pro-Phe
Take B9: in test [2], the IC50 was 25 nM.

B10: βPhe-Ang III (peptide)
peptide: RVYIHP[βPhe]-OH
notes: synthetic peptide; also called Arg-Val-Tyr-Ile-His-Pro-β-Phe
In test [2], B10 gave an IC50 of 20.3 nM.
